Patent US20090214553A1

Target: human CTLA-4-murine Ig fusion protein (human) (UniProt P16410)
Test: sandwich ELISA on the CTLA4-muIg standard with the blocking pair BNI3 (coated) and biotinylated AS-33 (detecting)

BNI3, CTLA-4 blocking mouse IgG2a mAb (antibody)
limit of sensitivity: 6.25 ng/mL
